Residue numbers refer to the chain shown, from its start. Where no end group is shown, it is not given here.
Legend:
Test in all cases: fluorescence polarisation; FAM-labelled peptide with GST-tagged domains or MBP-tagged full-length UHRF1; as described in ref. 4, plotted as change in anisotropy
Conditions in all cases: both partners purified
[1] = biological target: T1, GST-tagged UHRF1 tandem Tudor domain (TTD, a.a. 125–285) ( (printed UniProt entry is …, UniProt Q96T88 125-285))
T1 construct: also called UHRF1 TTD; source: recombinant GST fusion
T1 sequence (looked up): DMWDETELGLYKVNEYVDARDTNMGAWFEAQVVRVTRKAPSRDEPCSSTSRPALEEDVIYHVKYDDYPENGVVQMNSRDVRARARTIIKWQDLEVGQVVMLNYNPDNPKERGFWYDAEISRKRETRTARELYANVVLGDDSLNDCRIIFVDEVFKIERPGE

[2] = biological target: T2, GST-tagged UHRF1 TTD–PHD R295A/R296A ( (printed UniProt entry is …, UniProt Q96T88 125-364, R295A | R296A))
T2 construct: also called mutation of L2 (R295A/R296A); TTD–PHD mutant; source: recombinant GST fusion
T2 sequence (looked up): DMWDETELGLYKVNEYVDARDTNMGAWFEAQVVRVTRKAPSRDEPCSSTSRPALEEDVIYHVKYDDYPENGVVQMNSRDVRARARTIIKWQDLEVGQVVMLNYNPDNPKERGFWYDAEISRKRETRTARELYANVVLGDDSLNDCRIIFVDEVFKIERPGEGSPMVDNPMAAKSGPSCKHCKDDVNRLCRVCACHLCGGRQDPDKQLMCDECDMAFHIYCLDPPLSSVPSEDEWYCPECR

[3] = biological target: T3, UHRF1 full-length (a.a. 1–793), MBP fusion ( (printed UniProt entry is …, UniProt Q96T88 1-793))
T3 construct: also called recombinant full-length UHRF1; full-length UHRF1; not shown: MBP, N-terminal, kept
T3 sequence (looked up): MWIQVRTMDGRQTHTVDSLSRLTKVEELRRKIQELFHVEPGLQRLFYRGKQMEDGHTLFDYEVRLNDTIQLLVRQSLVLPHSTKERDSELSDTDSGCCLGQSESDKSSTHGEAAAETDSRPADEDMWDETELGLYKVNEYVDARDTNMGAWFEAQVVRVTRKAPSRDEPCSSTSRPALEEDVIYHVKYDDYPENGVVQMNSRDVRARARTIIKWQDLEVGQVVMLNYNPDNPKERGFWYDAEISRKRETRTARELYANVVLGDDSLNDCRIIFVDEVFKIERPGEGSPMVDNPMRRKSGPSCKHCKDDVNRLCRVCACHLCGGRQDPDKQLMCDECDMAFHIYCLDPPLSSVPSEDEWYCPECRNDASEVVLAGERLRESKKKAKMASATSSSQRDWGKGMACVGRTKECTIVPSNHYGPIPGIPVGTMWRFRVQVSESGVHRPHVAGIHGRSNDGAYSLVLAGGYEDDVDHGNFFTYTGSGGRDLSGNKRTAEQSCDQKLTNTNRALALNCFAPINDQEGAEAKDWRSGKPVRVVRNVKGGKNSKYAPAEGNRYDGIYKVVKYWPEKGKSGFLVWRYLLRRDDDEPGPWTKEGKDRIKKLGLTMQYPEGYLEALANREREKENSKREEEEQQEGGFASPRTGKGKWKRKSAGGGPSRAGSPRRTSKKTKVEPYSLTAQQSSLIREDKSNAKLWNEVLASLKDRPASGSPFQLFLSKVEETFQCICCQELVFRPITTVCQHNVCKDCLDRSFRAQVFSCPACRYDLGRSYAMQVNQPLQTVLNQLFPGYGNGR

[4] = biological target: T4, GST-tagged UHRF1 TTD–PHD S298E ( (printed UniProt entry is …, UniProt Q96T88 125-364, S298E))
T4 construct: also called phospho-mimetic mutation in L2; source: recombinant GST fusion
T4 sequence (looked up): T2 sequence (looked up) with A171R, A172R, S174E

Kd [1]: 30 to 80 nM
binding result [2]: binds
Kd [3]: 41 nM
binding result [4]: binds
B1: FAM-LIG1(118–130)K126me2 peptide (peptide)
peptide: {FAM}-IPKRRTARK(Me2)QLPK
modifications: not fully specified (C-terminus); printed as FAM-LIG1(118–130)K126me2 peptide
notes: DNA ligase 1 (LIG1), residues 118-130; also called FAM-LIG1K126me2; LIG1K126me2 peptide; source: bought: GenScript (synthetic peptide)

Reference: publication PMC7585203 (Epigenetics & Chromatin, 2020)
